Experimental data taken from the DeepSol protein solubility set.

Assay: soluble on expression in E. coli; label from the status in PepcDB or PDB records

Row | Sequence | soluble on expression in E. coli
1 | MGHHHHHHSHMTGRLDELEKAITTQNCNTKCVTIPSTCSEIWGLSTPNTIDQWDTTGLYSFSEQTRSLDGRLQVSHRKGLPHVIYCRLWRWPDLHSHHELKAIENCEYAFNLKKDEVCVNPYHYQRVETPVLPPVLVPRHTEILTELPPLDDYTHSIPE | soluble
2 | MDLSMTTPEEITQYLQDHPEFFEEHPDLLESLRFPHPYEGRVISINERQVAMLREKNKLLQNRLQELIDVGENNDAISEKMHRLTVALLGFGSLPELLHELQYHLCEDFSIPHVVLRLWQIDEFGTEADLPSPEFDPISNNVRILAQGMLRPYCGPEVDDEIRQWFAQDAEYLKSFAVIPLKKQSNFGLLVMASPEAERFYPDMGTLYLERLGDMVSSSIMRLIQQTPGAANRESAS | not soluble
3 | MHHHHHHKSTKILILGAGPAGFSAAKAALGKCDDITMINSEKYLPYYRPRLNEIIAKNKSIDDILIKKNDWYEKNNIKVITSEFATSIDPNNKLVTLKSGEKIKYEKLIIASGSIANKIKVPHADEIFSLYSYDDALKIKDECKNKGKAFIIGGGILGIELAQAIIDSGTPASIGIILEYPLERQLDRDGGLFLKDKLDRLGIKIYTNSNFEEMGDLIRSSCVITAVGVKPNLDFIKDTEIASKRGILVNDHMETSIKDIYACGDVAEFYGKNPGLINIANKQGEVAGLNACGEDASYSEIIPSPILKVSGISIISCGDIENNKPSKVFRSTQEDKYIVCMLKENKIDAAAVIGDVSLGTKLKKAIDSSKSFDNISSLDAILNNL | soluble
4 | MNREKLMKMANTVRTGGKGTVRRKKKAVHKTTTTDDKRLQSTLKRVGVNSIPAIEEVNIFKDDVVIQFINPKVQASIAANTWVVSGTPQTKKLQDILPQIISQLGPDNLDNLKKLAEQFQKQAPGAGDVPATIQEEDDDDDVPDLVVGETFETPATEEAPKAAAS | soluble
5 | SLSTADALDDENTFKILVATDIHLGFMEKDAVRGNDTFVTLDEILRLAQENEVDFILLGGDLFHENKPSRKTLHTCLELLRKYCMGDRPVQFEILSDQSVNFGFSKFPWVNYQDGNLNISIPVFSIHGNHDDPTGADALCALDILSCAGFVNHFGRSMSVEKIDISPVLLQKGSTKIALYGLGSIPDERLYRMFVNKKVTMLRPKEDENSWFNLFVIHQNRSKHGSTNFIPEQFLDDFIDLVIWGHEHECKIAPTKNEQQLFYISQPGSSVVTSLSPGEAVKKHVGLLRIKGRKMNMHKIPLHTVRQFFMEDIVLANHPDIFNPDNPKVTQAIQSFCLEKIEEMLENAERERLGNSHQPEKPLVRLRVDYSGGFEPFSVLRFSQKFVDRVANPKDIIHFFRHREQKEKTGEEINFGKLITKPSEGTTLRVEDLVKQYFQTAEKNVQLSLLTERGMGEAVQEFVDKEEKDAIEELVKYQLEKTQRFLKERHIDALEDKIDEEVRRFRETRQKNTNEEDDEVREAMTRARALR | soluble
6 | MGSDKIHHHHHHMSTLIRSALLVKFSEIARTLSVDPERMIRHVGADRSCIVSPDLHVPEPWLANVLDASEQASSGAAVGLLMAESWRLSDFGPISLLLQHQPTLRHALGQLETYRHLLSESVLVHVEETDAVAIVRLQLITDRPTPGRQPVELSIGAMLCLMKSMLGGKWKPRSVHFTHGAPANLHVHRRLFGTNVEFGSDFDGIVLDRQDLDRPNPLGDVNLARYAREFLDQHPRGRRISTASNVRRSVHMLLPRGQGSIEQVGQQLGMSARTLQRRLGQEGQEFSSLVNEVRRGLASRYLADLRYPVSQVAMLVGFAEVSTFSRWFSSQFGMPPTRWRTGAEH | not soluble
7 | MGHHHHHHSHMAMRQTPLTCSGHTRPVVDLAFSGITPYGYFLISACKDGKPMLRQGDTGDWIGTFLGHKGAVWGATLNKDATKAATAAADFTAKVWDAVSGDELMTLAHKHIVKTVDFTQDSNYLLTGGQDKLLRIYDLNKPEAEPKEISGHTSGIKKALWCSEDKQILSADDKTVRLWDHATMTEVKSLNFNMSVSSMEYIPEGEILVITYGRSIAFHSAVSLDPIKSFEAPATINSASLHPEKEFLVAGGEDFKLYKYDYNSGEELESYKGHFGPIHCVRFSPDGELYASGSEDGTLRLWQTVVGKTYGLWKCVLPEEDSGELAKPK | not soluble
8 | MGSDKIHHHHHHMTHDDVIQAIVNTIRDVPGIRALFLSGSYGNGLADEYSDIDFVLVSEDGATDAVAEAWRNAVEKTGEIVLWWDRTTVPVLINAITEDWTRTDVIILKPDQMGRQTKDALKPLFDHDNIYDTLKDAAPKPGPDLKRFRYEVEEFIRILGLLQLAVGREEYINGVLGVSLLRSKLVNLLIEETDAPNRGGILHLNRLITEDQKQVLISLPPAVPERDAMISAHLAYAAAYLPRARRRAERLGMEWPERFEAVTWSRLEKTLSIRRPYD | not soluble
9 | GPGSMTVVTTESGLKYEDLTEGSGAEARAGQTVSVHYTGWLTDGQKFDSSKDRNDPFAFVLGGGMVIKGWDEGVQGMKVGGVRRLTIPPQLGYGARGAGGVIPPNATLVFEVELLDV | soluble
10 | HYNTEILKSIDNEWRKTQCMPREVCIDVGKEFGVATNTFFKPPCVSVYRCGGCCNSEGLQCMNTSTSYLSKTLFEITVPLSQGPKPVTISFANHTSCRCMSKLDVYRQVHSIIRR | soluble
11 | MGTIADIVVTEQNAERFWIVVHRDGAPSLRLTVDQDVLLQFRLKKGMEISDDLLQHIVYADEVKKAYQQALYFLAHRMRSEHEVAAHLRKKGAPDSVIDEVLKKLRAERYVDDEAFAAAYVRTQKKTAAKGPLLIRAELERLGVLGCLIEQSLAEYTLDEQMAIARSLYEKAKKQRLAESARAFLERVRQQLMRKGFPHEVIAAVLADGGAHTEQEEREALSVQAEKAHRRYAHHPRPLYEQKMRQALYRKGFALDLINEWLRMHGNDE | not soluble
12 | MLELKPPLVLLSGPAGFGEYLKLMDHRYVGGVLLKTVTLHPKEGNPTPRMADSDFYVINRIGLENPGIHAFVENIPELPVPMIASLGGDSFEEYLEVARVFKKVADRFYAVEFNFSCPNVKEGGLSIVKNAEEWKKLLNTLRKELPDSFLIAKVGVEGIFVEDAAEFVMKTGWDGITLVNTVRGLHFEKDTMILGGLSGPVLKPIALRAVYEVKKRFPELFVIASGGVYSVKDAEEFLKVGADVIGVGSALFKDPGVVEEIGKYLLEVKR | soluble
13 | MFDFDGYMLRKAKSVNKALEAAVQMKEPLKIHESMRYSLLAGGKRVRPMLCIAACELVGGDESTAMPAACAVEMIHTMSLMHDDLPCMDNDDLRRGKPTNHMAFGESVAVLAGDALLSFAFEHVAAATKGAPPERIVRVLGELAVSIGSEGLVAGQVVDVCSEGMAEVGLDHLEFIHHHKTAALLQGSVVLGAILGGGKEEEVAKLRKFANCIGLLFQVVDDILDVTKSSKELGKTAGKDLVADKTTYPKLIGVEKSKEFADRLNREAQEQLLHFHPHRAAPLIALANYIAYRDN | soluble
14 | GPGSMTTSDELPANGELDQPERIPDVVECERLKKAGNDLFAADRVAEALELYREAIKHAPLKPVKKPTQHRQDEVPPCGSEGTAQNSIGESSVVSEKSSAPGTEKSSKVGADDAAQDGDDDGIDYTLTSQVYCNAGLCLSKQGMPEDAITHLSEAIRHNKQYSKAYYRRAECYYVLGKWSNAYGDYEEYEKLGGTLDAGSQDRKRQAKAKVDEEMQKMLGELKNMGNRFLNYFGLSTDNFKFDKDPNTGGYSVRFEQ | not soluble
15 | MIQSGKIYIRGRTVVFMIIRNEQDLEGLRKIGRIVALAREEMKKEAKPGMTTKELDLIGKKVLDEHGAISAPEKEYDFPGVTCISVNEEVAHGIPGDRVLKEGDLVNVDVSAALDGYYADTGISFVLGEDEAKEKLCQAAVDAFWAAMKKVKAGSKQNQIGRAVSNFAHKNGYNVIQNLTGHGIGLSLHEAPNHILSYFDPMDNALLKDGLVIAVEPFISMKADHIIERGDDGWTFVTPDKSLVAQCEHTVVVTRGEPIILTEI | soluble
16 | MGSDKIHHHHHHMEKKVLIVGISQKQKDFDYSMEELANLAAANNMEVVGEIRQNIDRENRATYVGKGKVDEIKGLAEMQDARLIIFNDELSPSQIRNLEEALELDVMDRTGLILAIFANRAKTKEAQLQVQIAKLQYELPRIFGQGEDMDQQSGKGGLSNRGSGEKKIETDRRTIKYQIRHLQKELDMLVDDREVRRRKRKKNEIPVVSLVGYTNAGKSTTMNGLVRAYSETAEKQVFEKDMLFATLETSVREIVLPDNKQFLLTDTVGFVSKLPHQLVKAFRSTLEEARDADLLIHVVDYSDPHYKTMMKTTEETLKAVGVEDVPVIYAYNKADLIEGEIYPKQTENTIVFSAREKESLEFLTEVIRKELFASYEKATFLIPFEAGNVVAYLNDHADVLATEYLENGTQIVAEVSPADLQKLAEYQVAE | not soluble
17 | MQKRHTNRERYFEEQAQTTRNYYIPYIKEYTGNLPNKVLEVGCGEGGNLLPFAELGCDVIGIDIAASRIEQAQNFFITKRQKGTFIASDIFLLKDLQKHFPLILIHDVIEHIDNKEQFLRNLKKYLSPNGMIFIAFPAWQMPFGGHQQIARSKIISHMPFIHLLPRMLYKRILELFSEQESTVKELLTIKYTRCTIEMFRRVVKQTDYQIVNEQLYFINPHYKIKFGLTPHKLNKTIACIPFIRNVFSTSCFYLIRPT | not soluble
18 | MGSDKIHHHHHHMYNEYQPSLLLAPYIDKYWEFKGNPDYGMKINILPDGCTDFIFTLGEVADIAEQESLIMQPYRSYFVGPMSRYSTLITYAKSIHMFGIRFLPCGLFRFMQLPLEELGNQRISTFESGGIFNDSLAERLCEQPYIQDKIRLIESFLTQALCTNNKIEKQISYAVDCINLSKGQLPIRSLVENVCLCQRHFERKFKHQTGYSPKEYSRIIKFKNAVDLLRSTSSNQLFSVAIEAGYYDTAHLSKEIKALSGNTPGSFLSLPVTEETTLTYLKL | not soluble
19 | MPGAMHDEPDHPELSITVPTLNEAEGLERFFAMLSAQQGVRFELVIADGGSTDGTPESARRLAAATPFAATVIETGRGRGRQMNAGAAAAAGDTLLFLHADCAFPDPLALRTALDAFTQTVAAGGSHRVAGHFRLRFERTDSAPSLPYYFYEWKARLHRPGCTHGDQGLLLGRRFFAEAGPFDESFPILEDVGLAERIAALGEWLLLPAEIVTSARRFEAEGLRERQTLNALLMNFAAMGWDPFLAELPRLYQSQDRAGRLLLGPVLRLIARLLRPLPRRERGRLWRETGRYVRANAWQIPFFLDVRRHFRQGTPVGEGETPRLDLHDRIFDRLTENGAGHRATALLVWIWFRLSLLREPLTPPAARNPEGNGSLEHHHHHH | soluble
20 | MNSLFVDNTVFITRLKAGHIGRLVQALFEEWHGFEPWSSVDKIHAYYGRCLKDDELPLAFAAVDDSGILLGSAAVKRHDMESFPRYEYWLGDVFVLPEYRGKGIGRRLVAHCIGAARSLGIKFLYLYTPDVQIFYESFGWVVVGRHFHNGEWVTVMRLDVDKV | not soluble
21 | MGSDKIHHHHHHMAEKQYDFTHVPKRQGNSIKWGVLKEKELPMWIAEMDFKIAPEIMASMEEKLKVAAFGYESVPAEYYKAVADWEEIEHRARPKEDWCVFASGVVPAISAMVRQFTSPGDQILVQEPVYNMFYSVIEGNGRRVISSDLIYENSKYSVNWADLEEKLATPSVRMMVFCNPHNPIGYAWSEEEVKRIAELCAKHQVLLISDEIHGDLVLTDEDITPAFTVDWDAKNWVVSLISPSKTFNLAALHAACAIIPNPDLRARAEESFFLAGIGEPNLLAIPAAIAAYEEGHDWLRELKQVLRDNFAYAREFLAKEVPEVKVLDSNASYLAWVDISALGMNAEDFCKYLREKTGLIISAGNGYRGNGHEFVRINLACPKELVIDGMQRLKQGVLNLNN | not soluble
